The supplement of paper PMC7877785
± gives the uncertainty stated by the source.

Assay: self-splicing fitness, log relative to wild type (ln ratio); higher = more splicing; Tetrahymena group I intron in knt gene, E. coli kanamycin selection, DiMSum; sequences stand for … in CUCUCU…GGAGGGAAAAGUUAUCAGGCAUGCACCUGGUAGCUAGUCUUUAAACCAAUAGAUUGCAUCGGUUUAAAAGGCAAGACCGUCAAAUUGCGGGAAAGGGGUCAACAGCCGUUCAGUACCAAGUCUCAGGGGAAACUUUGAGAUGGCCUUGCAAAGGGUAUGGUAAUAAGCUGACGGACAUGGUCCUAACCACGCAGCCAAGUCCUAAGUCAACAGAUCUUCUGUUGAUAUGGAUGCAGUUCACAGACUAAAUGUCGGUCGGGGAAGAUGUAUUCUUCUCAUAAGAUAUAGUCGGACCUCUCCUUAAUGGGAGCUAGCGGAUGAAGUGAUGCAACACUGGAGCCGCUGGGAACUAAUUUGUAUGCGAAAGUAUAUUGAUUAGUUUUGGAGUACUCGUGGUCG
Method in brief: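 Six replicate transformations of E. coli BL21(DE3) with a pET-22b(+) library were grown overnight at 37°C or 30°C. The library randomised all eight P1ex-region intron nucleotides, the intron lying in the knt kanamycin-resistance gene, and plates were LB agar with or without 25 μg/mL kanamycin plus 100 μg/mL carbenicillin, 50 μM IPTG and 0.2% rhamnose. Pooled colonies were amplicon-sequenced on an Illumina HiSeq 2500, and fitness is the DiMSum error-weighted combination of wild-type-normalised replicate fold changes, kanamycin versus none.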

Sequence | self-splicing fitness (ln) (30 °C) | self-splicing fitness (ln) (37 °C)
CUUGAGCAAUAUUACGCGCA | -2.81 ± 0.27 | -2.23 ± 0.33
UAAGAGCAAUAUUACGUUUG | -2.33 ± 0.096 | -1.07 ± 0.12
CCUUAGCAAUAUUACGUAUG | -2.98 ± 0.19 | -0.234 ± 0.12
GAUUAGCAAUAUUACGGCAG | -2.78 ± 0.31 | -1.84 ± 0.23
GCCUAGCAAUAUUACGUCAC | -3.49 ± 0.24 | -2.04 ± 0.22
UCUGAGCAAUAUUACGGGCU |  | -3.79 ± 0.42
AAUUAGCAAUAUUACGUGUC | -3.59 ± 0.29 | -1.79 ± 0.2
CAAUAGCAAUAUUACGGGCU | -3.42 ± 0.16 | -1.4 ± 0.12
GGCCAGCAAUAUUACGUUGA | -2.04 ± 0.12 | -1.27 ± 0.12
CAUUAGCAAUAUUACGGCUG | 0.0732 ± 0.078 | 0.0962 ± 0.088
UCGCAGCAAUAUUACGCGAG | -2.85 ± 0.15 | -2.56 ± 0.15
UUGUAGCAAUAUUACGGUGG | -1.75 ± 0.12 | -1.28 ± 0.17
AAGAAGCAAUAUUACGUAUU | -2.28 ± 0.16 | -1.43 ± 0.12
ACUCAGCAAUAUUACGAAUC |  | -1.05 ± 0.32
CCCCAGCAAUAUUACGUGUG | -2.66 ± 0.084 | -2.5 ± 0.11
UACGAGCAAUAUUACGAACA | -2.11 ± 0.27 | -2.13 ± 0.29
CAACAGCAAUAUUACGCAAC | -3.4 ± 0.23 | -2.53 ± 0.33
CCGAAGCAAUAUUACGGGCA |  | -2.82 ± 0.25
AAACAGCAAUAUUACGGAAU | -3.81 ± 0.16 | -2.4 ± 0.14
AGCAAGCAAUAUUACGGUUA | -0.707 ± 0.08 | 0.127 ± 0.08

Sequence | self-splicing fitness (ln) (30 °C) | self-splicing fitness (ln) (37 °C)
CAUCAGCAAUAUUACGCAAA | -2.39 ± 0.15 | -2.48 ± 0.21
CGAUAGCAAUAUUACGAAGC |  | -1.1 ± 0.4
AUAUAGCAAUAUUACGGAAU | -1.92 ± 0.21 | 0.227 ± 0.23
CCAUAGCAAUAUUACGAAGG | -3.26 ± 0.22 | -2.87 ± 0.34
CAAGAGCAAUAUUACGGCCA | -2.08 ± 0.38 | -2.62 ± 0.48
GGACAGCAAUAUUACGUGUC | -3.52 ± 0.28 | -2.68 ± 0.23
CCAAAGCAAUAUUACGUACC | -3.76 ± 0.37 | -2.19 ± 0.32
UAGAAGCAAUAUUACGUCCG | 0.777 ± 0.14 | -0.199 ± 0.16
UGCGAGCAAUAUUACGGGGG | -3.34 ± 0.26 | -2.36 ± 0.29
CUGUAGCAAUAUUACGUGUG | -1.79 ± 0.058 | -0.37 ± 0.071
UUAAAGCAAUAUUACGGCAG | 0.129 ± 0.086 | 0.214 ± 0.11
CAGAAGCAAUAUUACGAAUC |  | -1.93 ± 0.38
CAUCAGCAAUAUUACGACAG | 0.0306 ± 0.087 | 0.00869 ± 0.13
CACAAGCAAUAUUACGUGCC | -3.26 ± 0.14 | -2.48 ± 0.14
CGUUAGCAAUAUUACGCAGU |  | -2.29 ± 0.37
ACGUAGCAAUAUUACGUACC | -1.4 ± 0.13 | -0.541 ± 0.19
UAAUAGCAAUAUUACGAGCG | -1.02 ± 0.1 | -0.261 ± 0.15
ACCGAGCAAUAUUACGGGCC | -3.39 ± 0.17 | -2.09 ± 0.15
CAGAAGCAAUAUUACGGUAA | -3.62 ± 0.25 | -2.49 ± 0.18
ACAAAGCAAUAUUACGGGCU | -1.07 ± 0.055 | -0.972 ± 0.088
